# From US20230242902A1, “A HIGHLY ERROR-PRONE […] R[…] FOR TARGETED CONTINUOUS EVOLUTION IN VIVO” (The Regents of the University of California, priority 2017, published 2023)
# B1: TP-DNAP1-4-2: TP-DNAP1 variant (L477V, L640Y, I777K, W814N), encoded by SEQ ID NO:11 (protein, listed as Kluyveromyces lactis)
# chain: MDYKDKALNDLRNVYADFDSLPLDFRQILIKDRATLLQKEDVEKKILERQEDAKKYAEYLKQSEIPERISLPNIKRHKGVSISFEETSEDMVLEPRPFIFDGLNIRCFRRETIFSLKNKILNMVKESSSFKNVSRQSVSFMYFKIFNKGKVIASTKSVNIYEDKIDERLEDLCNNFDDVLKKIIDVTYGYESLFVSETYSYVIFYAKSIYFPQPRCVNNWGNNIPNILTFDSFKLFTANKNNVSCIKQCSRFLWQKDFNTLEEMIEYKNGNICIVTPQLHINDVRDIKSFNDIRLYSESPIKTFSVIDNTITYLFYFKEHLGVIFNITKSRHDRRVTKFSPLSKFSDVKNITVCFDIESYFDPEKESNQVNIPFICCASIIYNKVIGNIVDFEGRDCVAQMIEYVVDICGELNISSVELIAHNGGGYDFHYILSSMYNPAAIKNILIRNNSFISFNFAHDGVKFSVKDSYSFLLCSVANASKAFLNEETFKKTDFPHHDLKTADDLYKVYKEWSSVNTEINHVVEKEKLLITSEHIVNFTKNDKSKTLIEWSKDYCRNDVLVLSKVWLEFKNAVEDIFNCELVDQTMTLAGLSYKLFQANMPFDVELRHPNKEDYFNMREALIGGRCISVNGIYKDVLCYDVKSLYPASMAFYDQPYGSFKRVSSRPKDELGIYYVRVTPNRNNKSNFFPIRSHNKITYNNFEESTYIAWYTNVDIDIGLSEGHNIEYIPFDSYGNIGYSWSKKGKIFEKYIKDVLYKLKIKYEKQNNKVKRNVIKKIMNSLWGKFAQKWVNFEYFIKSEDDIDFESEEAYKINDTDFMLIKKIKESTYSSKPIQNGVFTLSWARYHMKSIWDAGAKEGAECIYSDTDSIFVHKEHFKKNAKFMLNGLKVPIIGSEVGQLELECEFDKLLCAGKKQYMGFYTYFQDGKPCIKEKKRFKGIPSNYIIPELYAHLLSGADKEAKIQFLKFRREWGSVKGYIENKTVKAT
# B2: w.t.: wild-type Kluyveromyces lactis DNA polymerase TP-DNAP1, SEQ ID NO:1 (protein, listed as Kluyveromyces lactis)
# chain: MDYKDKALNDLRNVYADFDSLPLDFRQILIKDRATLLQKEDVEKKILERQEDAKKYAEYLKQSEIPERISLPNIKRHKGVSISFEETSEDMVLEPRPFIFDGLNIRCFRRETIFSLKNKILNMVKESSSFKNVSRQSVSFMYFKIFNKGKVIASTKSVNIYEDKIDERLEDLCNNFDDVLKKIIDVTYGYESLFVSETYSYVIFYAKSIYFPQPRCVNNWGNNIPNILTFDSFKLFTANKNNVSCIKQCSRFLWQKDFNTLEEMIEYKNGNICIVTPQLHINDVRDIKSFNDIRLYSESPIKTFSVIDNTITYLFYFKEHLGVIFNITKSRHDRRVTKFSPLSKFSDVKNITVCFDIESYFDPEKESNQVNIPFICCASIIYNKVIGNIVDFEGRDCVAQMIEYVVDICGELNISSVELIAHNGGGYDFHYILSSMYNPAAIKNILIRNNSFISFNFAHDGVKFSVKDSYSFLLCSLANASKAFLNEETFKKTDFPHHDLKTADDLYKVYKEWSSVNTEINHVVEKEKLLITSEHIVNFTKNDKSKTLIEWSKDYCRNDVLVLSKVWLEFKNAVEDIFNCELVDQTMTLAGLSYKLFQANMPFDVELRHPNKEDYFNMREALIGGRCISVNGIYKDVLCLDVKSLYPASMAFYDQPYGSFKRVSSRPKDELGIYYVRVTPNRNNKSNFFPIRSHNKITYNNFEESTYIAWYTNVDIDIGLSEGHNIEYIPFDSYGNIGYSWSKKGKIFEKYIKDVLYKLKIKYEKQNNKVKRNVIKIIMNSLWGKFAQKWVNFEYFIKSEDDIDFESEEAYKIWDTDFMLIKKIKESTYSSKPIQNGVFTLSWARYHMKSIWDAGAKEGAECIYSDTDSIFVHKEHFKKNAKFMLNGLKVPIIGSEVGQLELECEFDKLLCAGKKQYMGFYTYFQDGKPCIKEKKRFKGIPSNYIIPELYAHLLSGADKEAKIQFLKFRREWGSVKGYIENKTVKAT
# B3: WT: wild-type Kluyveromyces lactis DNA polymerase TP-DNAP2, SEQ ID NO:13 (protein, listed as Kluyveromyces lactis)
# chain: MNDELAFLNSQIDDYSDDIEFLRTEVFRINRYSKSIYSLMKNSSKEAIKETIEFNKYGQEIHSKIKEKEISLIEAIKLMEKKYKYLRSLNKTKDKSKKKKIHTKDIETLKTIYKTKADFDIRNFKNAETFTYENYSLLIPSEKELIDLIPEIEEDYSYYFYVSLTITGPTIFGGVTRKVPIIDTYGDINKDFYNKIKENITKVLDRVPFYEEKESEIICKKVLITLTVNKWESIDKWYKNVKSKSKKFKDFTLFLASDTSKNCVQQCVEYLGGKWNTNYSLEKMIPQQKIVTYIPLLMDIQYVQSMEDLISDFDEPNTDCKNIARLLKWNGHMGVITKIDKDVKINRIQRKRIIDVENKEVKEVFFDIESFSDETKHQIPYLICWSYLGELYYRTGKNCIKEFVEEILSYNVDIILYAWYGSGYDYQHVLPYMKSKCIKDKYIIKNNMITYGELYYENAIIYLKDPYLFILTSLDKASKAFNVINKGEFPHSIIHSWEDLNKILPNWVKIQKRMIEYKDDNKLNIYYKNIEIFENDRNYNTILENAIEYCKVDVLAMEKVWIKFKKLLEKNLNITVSVKTFTLSQLSMKIMESKLPKYVKLYVPTLEEYSKIRNAIYGGRVISKNGIYEENIVYADVVSLYPSAMKLLKHSYGKPKLVDYIDFEKHGIYRVTLLNKHDQEPKNYLNFVPRRINRKLTWEWFKIHEGWYHTYDLIIAKSEGFDIYCHEGFEYPEKDYIFNDFIDTLYSMKETHTACSCEEQPCPIRMVAKIALNGGGYGKFVQKPIDKEIYIVKRDVVAGECDKLQENENGEICIGKRLVKRPLFYNLDSENYDKMIIEKEDEPIYSTQCGISILSASRYRLYKLCKQFENIDIIYSDTDSIFVKQKSVDWELFKSKCGSELGQLDSTIDDTKNAIISKMYIGGAKMYAFEYLNNKNKLITKLHCKGVPNYMLSLNQFKYLMESPDNTIAYKFEIIRRKLVNVITKDLIKDIKQT
# B4: S370Q: TP-DNAP2 variant (protein, listed as Kluyveromyces lactis)
# chain: MNDELAFLNSQIDDYSDDIEFLRTEVFRINRYSKSIYSLMKNSSKEAIKETIEFNKYGQEIHSKIKEKEISLIEAIKLMEKKYKYLRSLNKTKDKSKKKKIHTKDIETLKTIYKTKADFDIRNFKNAETFTYENYSLLIPSEKELIDLIPEIEEDYSYYFYVSLTITGPTIFGGVTRKVPIIDTYGDINKDFYNKIKENITKVLDRVPFYEEKESEIICKKVLITLTVNKWESIDKWYKNVKSKSKKFKDFTLFLASDTSKNCVQQCVEYLGGKWNTNYSLEKMIPQQKIVTYIPLLMDIQYVQSMEDLISDFDEPNTDCKNIARLLKWNGHMGVITKIDKDVKINRIQRKRIIDVENKEVKEVFFDIEQFSDETKHQIPYLICWSYLGELYYRTGKNCIKEFVEEILSYNVDIILYAWYGSGYDYQHVLPYMKSKCIKDKYIIKNNMITYGELYYENAIIYLKDPYLFILTSLDKASKAFNVINKGEFPHSIIHSWEDLNKILPNWVKIQKRMIEYKDDNKLNIYYKNIEIFENDRNYNTILENAIEYCKVDVLAMEKVWIKFKKLLEKNLNITVSVKTFTLSQLSMKIMESKLPKYVKLYVPTLEEYSKIRNAIYGGRVISKNGIYEENIVYADVVSLYPSAMKLLKHSYGKPKLVDYIDFEKHGIYRVTLLNKHDQEPKNYLNFVPRRINRKLTWEWFKIHEGWYHTYDLIIAKSEGFDIYCHEGFEYPEKDYIFNDFIDTLYSMKETHTACSCEEQPCPIRMVAKIALNGGGYGKFVQKPIDKEIYIVKRDVVAGECDKLQENENGEICIGKRLVKRPLFYNLDSENYDKMIIEKEDEPIYSTQCGISILSASRYRLYKLCKQFENIDIIYSDTDSIFVKQKSVDWELFKSKCGSELGQLDSTIDDTKNAIISKMYIGGAKMYAFEYLNNKNKLITKLHCKGVPNYMLSLNQFKYLMESPDNTIAYKFEIIRRKLVNVITKDLIKDIKQT
# Assays:
# p2-encoded leu2* = test: p2 leu2* fluctuation tests in GA-Y021 (p2 mutation rate reporter strain); format: cell-based, S. cerevisiae; conditions: for change in p2 mutation rate by TP-DNAP1: GA-Y021, noncognate polymerase in trans, mutual orthogonality experiment
# Method in brief: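 Yeast GA-Y021 carrying wt TP-DNAP2 plus variants in trans; replicate cultures grown 48 h at 30° C in pH 5.8 SC dropout, spot-plated on leucine-free medium, colonies counted after 5 days. m by p0 method (six replicates) or Ma-Sandri-Sarkar MLE (36–48 replicates), normalized to titer, p2 copy number (mKate2) and 2.33 bp target.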
# genomic URA3 locus = test: Fluctuation tests of genomically encoded URA3 in the presence of TP-DNAP2 variants (AR-Y436); format: cell-based, S. cerevisiae; conditions: for per-base substitution rate at genomic URA3 locus: TP-DNAP2 in trans, AR-Y436, (95% C.I.)
# Procedure: Fluctuation tests using genomically encoded URA3 were performed in the presence of TP-DNAP2 variants to determine the genomic per-base substitution rates, similarly to previously described protocols (Lang and Murray, 2008, Genetics, 178:67-82). AR-Y292 derived strains harboring the appropriate TP-DNAP2 variant encoded on a CEN6/ARS4 vector (with a HIS3 marker) were grown in liquid SC medium lacking uracil and histidine until saturation. Each strain was diluted 1:5,000 into SC medium lacking histidine and aliquoted into 48 replicates of 200 μL each. Cultures were grown for 48 hours at 30° C. to reach saturation. Saturated cultures were washed with 400 μL 0.9% NaCl and resuspended in 420 μL 0.9% NaCl. 400 μL from each replicate was spot plated on pre-dried solid SC medium lacking histidine and supplemented with 5-FOA (1 g/L). The residual 20 μL from six replicates were pooled, diluted, and plated on solid YPD medium to determine cell titers. Plates were allowed to dry before incubation at 30° C. Colonies were counted on titer plates after 2 days, and on spot plates after 5 days of growth. The expected number of mutants (m) was calculated using the MSS maximum likelihood estimator method via the FALCOR tool, and corrected for partial plating, as described above. To determine per-base substitution rates, the corrected m was normalized to the average cell titer, the URA3 copy number (1 in haploid yeast), and the target size for 5-FOA resistance via substitutions in URA3 (104 bp). 95% confidence intervals were similarly scaled.
# Like p1 replication by TP-DNAP1, p2 replication by TP-DNAP2 occurs in the cytoplasm via a protein-primed mechanism, making it likely that p2 replication is orthogonal to host genome replication. To test this, CEN6/ARS4 vectors lacking TP-DNAP2, or encoding codon optimized versions of TP-DNAP2^WT, TP-DNAP2^S370Q, or TP-DNAP2^Y424Q were transformed into AR-Y436. AR-Y436 contains wt p1 and p2, as well as an intact URA3 locus in the host genome. Genomic per-base substitution rates were determined via fluctuation tests based on the frequency of 5-FOA resistant clones arising from mutations in the genomic URA3 locus, as previously described (Ravikumar et al., 2014, Nature Chemical Biology, 10:175-177; Lang and Murray, 2008, Genetics, 178:67-82). The substitution rich spectrum of URA3-disabling mutations makes this assay ideal for detecting whether the elevated substitution rate of TP-DNAP2^S370Q or TP-DNAP2^Y424Q contributes to genomic mutation. No increase in the host genomic mutation rate was observed when error-prone variants of TP-DNAP2^S370Q and TP-DNAP2^Y424Q were present (Table 8).
molecule,measurement,setting,value
B1,change in p2 mutation rate by TP-DNAP1,p2-encoded leu2*,no statistically significant change
B2,change in p2 mutation rate by TP-DNAP1,p2-encoded leu2*,no effect
B3,specificity for p2 over p1,p2-encoded leu2*,at least 29 fold
same,mutation rate of p2-delORF1-mUL* replication,"p2-encoded leu2*; GA-Y021, wt TP-DNAP2 encoded on p2",5.96×10^−10 s.p.b.
same,per-base substitution rate at genomic URA3 locus,genomic URA3 locus,2.2 (1.2-3.4) ×10^−10
B4,fold increase of p2 mutation rate,"p2-encoded leu2*; GA-Y021, mutual orthogonality experiment, 48 replicates",29 fold
same,Per-base substitution rate pf p2,"p2-encoded leu2*; TP-DNAP2 variant in trans, wt TP-DNAP2 in cis, 36 replicates, (95% C.I.)",83.0 (62.8-105) ×10^−10
same,Fold increase,p2-encoded leu2*; p2 substitution rate over no variant in trans,13.9
same,fold increase of p2 substitution mutation rate,"p2-encoded leu2*; reconfirmation, 36 replicates",~14 fold
same,per-base substitution rate at genomic URA3 locus,genomic URA3 locus,1.8 (1.0-2.8) ×10^−10
same,host genomic mutation rate,genomic URA3 locus; error-prone TP-DNAP2 variant present,No increase
